B1: ZBTB22 (parent)
chain: HTGLKPYECGVCAKKFMWRDSFMR
B2: TOR1AIP2 (parent)
chain: DGAGRTWQDSDTVKLLVDLELSYG

Variants of: B1
Assay: protein stability index of a GFP-peptide fusion (GPS, HEK-293T) (PSI 1-6); higher = more stable
Settings: c terminus: a fixed tail appended
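Also: lentivirally expressed fusions sorted by FACS into six bins by GFP to DsRed ratio, PSI derived from sequencing read proportions per bin multiplied by bin number.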

Protein stability index: each site, then its substitutions
T2: P 2.72; F 4.25; C 3.8; Y 2.79; D 3.09; K 2.14; R 2.38; G 1.74; E 2.67; N 2.28; M 1.17
H1: A 3.04; D 1.45; S 1.92; C 1.3; F 1.76; Q 2.71; I 2.85; T 2.24
L4: V 3.58; N 1.37; A 1.62; I 2.75; M 1.93; C 1.64; E 1.86; F 2.27; Y 3.37; D 2.32; H 2.07; S 4.46; G 1.92
P6: R 2.1; Q 2.26; L 2.99; K 3.36; T 2.99; D 1.82; I 1.45; S 2.62; Y 2.11; E 2.97; A 3.44; F 2.28; M 2.6; V 1.1; H 2.3; N 1.65
Y7: A 2.64; I 3.53; G 2.84; E 1.3; D 1.82; F 2.27; C 2.68
G3: N 3.32; V 3.07; E 3.34; L 1.69; D 1.36; C 2.47; K 2.3; A 2.15; P 4.19; T 2.23; S 2.62; I 2.91; Q 1.52
K5: L 1.92; R 2.38; N 1.56; C 2.43; D 3.82; P 1.62; M 2.73; F 2.66; I 2.05; S 1.96

Variants of: B2
Assay: as above
Settings: c terminus: a fixed tail appended

Protein stability index, by site and new letter:
T12: E 3.43; D 3.56; S 2.28; F 1.4; V 2.03; K 2.6; M 1.58; Q 1.6; R 2.59; W 1.87; N 2.79; Y 1.49; I 1.54; H 1.35
V17: F 1.78; I 2.54; D 4.56; C 1.92; Y 2.39; S 3.21; Q 3.97; M 1.85; W 1.58; G 3.17; E 4.81; L 2.34; R 3.11; N 4.01
V13: P 3.82; T 2.44; R 2.7; N 3.08; D 5.09; C 2.04; L 2.07; F 1.37; K 2.18; I 1.06; E 3.95; M 2.77
G24: I 3.44; A 2.47; E 1.71; S 2.51; P 2.77; T 1.73; N 1.26; Q 2.53; D 1.8; K 2.88
L16: V 1.42; G 3.57; E 3.69; D 3.52; Y 1.82; M 2.02; S 3.36; C 1.99; K 4.25; P 3.38; W 2.88; I 2.57; N 3.94; R 2.98; Q 3.31; T 3.66
S22: H 1.7; G 2.49; N 3.21; P 3.28; W 1.47; A 3.17; D 2.51; E 2.33; C 1.85; T 1.56; Y 2.35; R 1.84; L 1.89; I 1.55; M 2.13; K 3.51; Q 2.61; F 1.79
L15: P 3.82; T 3.67; G 3.75; W 2.07; R 3.9; S 4.04; V 2.53; N 4.18; H 3.54; E 4.54; A 3.7; I 1.75; F 2.18; Y 1.84; K 4.4; Q 4.28
Y23: H 1.77; G 2.6; E 1.85; A 1.1; T 2.56; R 2.15; I 1.36; F 1.03; K 3.9; M 5.21; N 1.45; S 1.56; D 1.91
T6: K 3.73; W 1.1; E 2.62; C 1.92; S 2.96; D 2.37; Y 1.58; I 2.17; Q 2.03; A 1.74
L19: A 3.97; V 2.27; M 3; S 4; N 3.75; T 4.11; F 2.43; D 4.31; G 4.45; I 2.03; C 2.8; E 4.55; Y 3.19; K 4.38
D11: I 3.92; K 1.53; Q 3.09; G 1.18; S 1.52; E 2.08; N 2.14; A 2.27; F 2.77; R 1.13; P 1.66
D18: M 1.36; C 2.22; I 4.08; K 1.98; S 1.52; H 1.08; A 4; P 3.1; N 1.8
Q8: E 2.26; T 4.32; R 2.88; G 3.19; S 3.33; D 1.24; P 2.49; N 2.26; M 2.09; K 1.38; Y 1.56
L21: Q 2.35; M 2.65; C 1.75; P 3.99; N 2.07; Y 1.62; D 2; A 2.01; W 1.72; H 2.84; F 1.6; E 1.62; T 1.44; K 2.02
R5: P 1.84; H 3.25; V 3.3; I 1.85; C 1.13; F 1.74; W 2.76; L 2.27; D 2.39; T 1.46; K 2.1; Q 2.05; N 2.74; Y 2.33; E 2.67; G 1.64
E20: G 2.13; D 1.56; F 2.34; H 1.26; M 1.68; S 1.75; T 1.48; L 2.12; W 2.81; P 3.09; K 1.93; N 2.08; R 1.61; Q 2.23; Y 1.59
K14: A 1.96; N 1.74; P 3.03; D 1.91; S 1.61; H 1.42; R 1.83; Q 1.63; W 1.5; T 1.61; E 1.88; G 1.91
D9: R 3.52; V 2.09; H 1.09; E 1.5; N 2.92
W7: F 2.91; P 2.45; H 2.83; L 2.03; V 2.44; C 2.79; A 3.35; G 3.22; M 2.36; I 2.5; E 4.3; R 3.68; D 4.15; N 4.06
S10: G 1.01; N 1.6; D 3.02; E 3.06; C 2.18; R 2.08; P 2.36; T 1.99; H 1.04; A 1.92; V 2.92; Q 1.9

Reference: the supplement of paper PMC10567573
